Data: publication PMC4356135, “Small heat shock protein 20 (Hsp20) facilitates nuclear import of protein kinase D 1 (PKD1) during cardiac hypertrophy” (Cell Communication and Signaling : CCS, 2015)

B1: His-tagged HSP20 protein (natural protein, UniProt O14558 1-160, looked up)
chain: MEIPVPVQPSWLRRASAPLPGLSAPGRLFDQRFGEGLLEAELAALCPTTLAPYYLRAPSVALPVAQVPTDPGHFSVLLDVKHFSPEEIAVKVVGEHVEVHARHEERPDEHGFVAREFHRRYRLPPGVDPAAVTSALSPEGVLSIQAAPASAQAPPPAAAK
notes: HSP20 (heat shock protein 20), open reading frame from Ultimate ORF clone IOH57317 in pENTR221, moved into pDEST-17 by Gateway cloning; also called His-HSP20; His-Hsp20; source: E. coli, purified (Ni-NTA Superflow resin); not shown: His, N-terminal, kept
B2: PKD1 25mer peptide spanning residues 606 to 630 (peptide array spot) (peptide)
peptide: GRDVAIKIIDKLRFPTKQESQLRNE
notes: also called G606-E630; source: SPOT-synthesised peptide on array

Experiments:
[1] = target: T1, PKD1 on the ProtoArray Human Protein Microarray (human, UniProt Q15139 1-912); test: peptide or protein array; ProtoArray Human Protein Microarray probed with 10 uM (200 ug/ml) His-HSP20 in 1xPBS, 5 mM MgCl2, 0.5 mM DTT, 0.05% Triton X-100, 5% glycerol, 1% BSA for 1.5 h at 4 C; detected with anti-His and Alexa Fluor 647 secondary antibody; control array in parallel; conditions: both partners purified
T1 construct: protein kinase D1 (PKD1) as spotted on the human protein microarray; construct not described; Proteins on this commercial array may carry a carrier tag; also called protein kinase D1; source: spotted on ProtoArray Human Protein Microarray (Invitrogen)
T1 sequence (looked up): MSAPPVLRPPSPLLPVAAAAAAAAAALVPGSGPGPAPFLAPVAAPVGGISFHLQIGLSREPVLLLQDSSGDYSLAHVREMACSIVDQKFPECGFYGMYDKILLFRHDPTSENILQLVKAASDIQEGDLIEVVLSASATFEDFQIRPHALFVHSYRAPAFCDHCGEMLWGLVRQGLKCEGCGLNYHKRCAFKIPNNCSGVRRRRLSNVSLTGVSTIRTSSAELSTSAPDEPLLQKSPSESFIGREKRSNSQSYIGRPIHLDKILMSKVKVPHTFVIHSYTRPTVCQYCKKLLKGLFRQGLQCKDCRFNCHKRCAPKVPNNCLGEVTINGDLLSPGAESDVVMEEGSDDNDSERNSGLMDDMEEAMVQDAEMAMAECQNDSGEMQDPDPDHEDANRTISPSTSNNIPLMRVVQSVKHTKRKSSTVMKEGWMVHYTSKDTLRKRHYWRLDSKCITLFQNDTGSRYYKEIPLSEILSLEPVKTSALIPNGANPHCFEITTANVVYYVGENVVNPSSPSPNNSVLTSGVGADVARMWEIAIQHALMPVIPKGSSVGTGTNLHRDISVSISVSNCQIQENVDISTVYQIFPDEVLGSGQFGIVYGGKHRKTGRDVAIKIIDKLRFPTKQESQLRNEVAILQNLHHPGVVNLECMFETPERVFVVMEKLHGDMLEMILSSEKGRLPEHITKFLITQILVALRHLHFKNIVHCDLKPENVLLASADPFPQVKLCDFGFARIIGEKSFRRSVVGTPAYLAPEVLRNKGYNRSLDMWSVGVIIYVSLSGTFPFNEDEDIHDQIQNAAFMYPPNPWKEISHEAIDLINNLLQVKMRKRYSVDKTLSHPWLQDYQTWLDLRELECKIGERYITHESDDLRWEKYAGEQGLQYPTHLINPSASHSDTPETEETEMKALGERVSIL

His-tagged HSP20 protein = target: B1; test: peptide or protein array; sequence of PKD1 spotted as 25mer peptides each shifted by five amino acids, and alanine scanning array of the 606-630 peptide, overlaid with Hsp20; methods in ref. 31; conditions: both partners purified

Row | Binder | binding result [1] | binding result (His-tagged HSP20 protein)
1 | B1 | binds | –
2 | B2 | – | binds
